Here are results for 23 sequences from patent publication US20230349903A1, “ASSAYS AND REAGENTS FOR CHARACTERIZATION OF MHCI PEPTIDE BINDING” (priority 2020, published 2023).

For experiment [1], the target named is T1, B*35:03 (Homo sapiens, UniProt P01889, A329T/A93T/A95T/C349S/D201E/D98Y/E176V/E187L/E204Q/E69T/I218V/K202T/L119I/Q94N/R155S/R180L/S121R/S35A/S48A/T118I/V127L/V306I/V36M/Y140F/Y91F). The conditions noted are these: IEDB value, cellular MHC/mass spectrometry; cited from earlier work.
Experiment [2] deals with T1, B*35:03. The experiment is described as follows: ELISA of small scale MHCI refold (anti-HLA W6/32 capture, anti-B2M detection). In kind it is binding. Details: inferred from enzymatic biotinylation; made in house; host or cells: Escherichia coli. To be noted: for S/N ELISA value: B*35:03, 1.0 μg/mL MHCI, no peptide control as background; for normalized ELISA OD (signal to background): B*35:03, 1 μg/mL MHCI, normalized to no peptide control. Here is the method:
(§1) Recombinant HLA alleles and B2M were over-expressed in E. coli, purified from inclusion bodies, and stored under denaturing conditions (6M Guanidine HCL, 25 mM Tris pH 8) in −80° C. as described above. In a 200 μL reaction, the peptide (0.01 mM, per well), oxidized and reduced glutathione (0.5 mM and 4.0 mM, respectively), recombinant HLA alleles (0.03 mg/mL) and B2M (0.01 mg/mL) were all combined within a 96-well plate. Refold screens were performed with five different peptides for each HLA of interest as described above (Table 3). and the MHCI complex was incubated at 4° C. for 3-5 days to allow refolding. Refolded samples were analyzed by ELISA, and the highest performing peptide was selected for further analysis. All data was analyzed relative to the negative control refold, which was performed in the absence of peptide (labeled NP). HLA-A*02:01 refolded with the CMV pp65 viral epitope was used as a positive control.
Formation of stable conditional MHCI complexes upon refolding with the redesigned peptides were identified by ELISA as described above. […] The original peptide (containing no UV amino acid substitution) was used as a positive control. All peptides used here were purchased from JPT (www.jpt.com) or ELIM Biopharm (www.elimbio.com).
(§2) A 384-well Nunc Maxisorp plate (ThermoFisher Scientific, Waltham, MA) was coated with 25 μL/well of mouse IgG2a anti-HLA ABC clone W6/32 (Novus Biological, Littleton, Co.) at 8 μg/mL in coating buffer (0.05 sodium carbonate pH 9.6). After overnight incubation at 4° C., the plate was washed 3 times with wash buffer (PBS, 0.5% Tween 20). The plate was then blocked with 50 μL/well of Block buffer (PBS, 0.5% BSA, 10 ppm Proclin) and incubated at room temperature (RT) with agitation for 1 hour. […] The plate was washed six times and 25 IL of biotinylated mouse IgG1 anti-human B2M (BioLegend, San Diego, CA) at 100 ng/mL in assay diluent was added to each well. After a 1 hour incubation at RT and six washes, 25 μL/well of Streptavidin-Horseradish Peroxidase (GE, Marlborough, MA) was added to the plate and incubated for 30 min at RT. The color reaction was developed with TMB peroxidase substrate (Moss, Pasadena, MD) at RT for 15 min, and the reaction was stopped with 1M phosphoric acid. The absorbance was measured at a wavelength of […] with a reference at 620 nm. Refolded MHC monomers without peptide or irrelevant peptide were used as the negative controls for each allele to normalize the signal.
(§3) Recombinant HLA alleles and B2M were over-expressed in E. coli, purified from inclusion bodies, and stored under denaturing conditions (6M Guanidine HCl, 25 mM Tris pH 8) in −80° C. as described above. In a 200 μL reaction, the peptide (0.01 mM, per well), oxidized and reduced glutathione (0.5 mM and 4.0 mM, respectively), recombinant HLA alleles (0.03 mg/mL) and B2M (0.01 mg/mL) were all combined in a 96-well plate. Refolds were performed with five different peptides for each HLA of interest as described above (Table 3), and the MHCI complex was incubated at 4° C. for 3-5 days to allow refolding. MHCI complex refolds were also performed in the absence of a peptide and used as the negative control to calculate the signal to noise (S/N) for the experimental peptides. Given that there should have been minimal properly refolded complex in the absence of a peptide, these samples provided the overall background of the assay to calculate the S/N value. HLA-A*02:01 refolded with the CMV pp65 viral epitope was used as a positive control. Peptides yielding the highest signal to noise ratio (S/N) were selected for further analysis.
Two different ELISA assays were evaluated to optimize the sensitivity of the assay. In the first assay format, the refolded MHCI was captured with anti-B2M antibody and detected with pan ABC anti-HLA antibody (clone W6/32). In the second assay format, MHCI was captured with the pan ABC anti-HLA antibody (clone W6/32) and detected with the anti-B2M antibody. […]
(In an ELISA, binding on a coated surface is turned into a signal by an enzyme label.)

The target of another experiment is A*26:01 (Homo sapiens, UniProt P04439, A114D/A173T/A270S/D101N/D185E/E277Q/E87N/F33Y/G231S/I121R/I218V/K168Q/L180W/L300P/L318F/P208A/P217A/Q86R/Q94H/R138Q/S129P/T187R/T323A/T345S/V100A/V358M). To be noted: IEDB value, purified MHC/direct/fluorescence, read-out: dissociation constant KD (~EC50); cited from earlier work.
Experiment [3] deals with T2, C*02:02 (Homo sapiens, UniProt P10321, A176E/A235T/A330V/A97T/C350S/D114A/D33Y/G40S/L171W/L180W/L218V/M285V/M309V/M331V/N104K/P208H/Q277E/Q291P/R45H/S101N/S123Y/S297R/S48A/T187E/T329A/T363A/V319A). The experiment in a line: ELISA of small scale MHCI refold (anti-HLA W6/32 capture, anti-B2M detection). To be noted: for S/N ELISA value: C*02:02, 1.0 μg/mL MHCI, no peptide control as background; for normalized ELISA OD: C*02:02, 1 μg/mL MHCI, normalized to no peptide control. In kind it is binding. As to the method:
as §1, with “control. […]” for “control.”
as §2, §3
Two different ELISA assays were evaluated to optimize the sensitivity of the assay. In the first assay format, the refolded MHCI was captured with anti-B2M antibody and detected with pan ABC anti-HLA antibody (clone W6/32). In the second assay format, MHCI was captured with the pan ABC anti-HLA antibody (clone W6/32) and detected with the anti-B2M antibody. In both assays, a 384-well Nunc Maxisorp plate (Thermo Fisher Scientific, Waltham, MA) was coated with 25 μL/well of capture antibody, mouse IgG1 anti-human B2M (BioLegend, San Diego, CA) or mouse IgG2a anti-HLA ABC clone W6/32 (Novus Biological, Littleton, Co.), at 8 μg/mL in coating buffer (0.05 sodium carbonate pH 9.6). […]

Experiment [4] addresses T2, C*02:02. To be noted: IEDB value, cellular MHC/mass spectrometry; cited from earlier work.
The target of the next experiment is C*14:02 (Homo sapiens, UniProt P10321, A176E/A330V/A35S/A97T/C350S/D114A/D33S/L171W/L180R/L218V/M285V/M309V/M331V/P208H/Q277E/Q291P/R121W/R243W/S123F/S297R/S48A/T329A/T363A/V319A). To be noted: IEDB value, purified MHC/direct/fluorescence, read-out: dissociation constant KD; cited from earlier work.
Another experiment addresses HLA-A*02:03 (Homo sapiens, UniProt P04439, A173T/D140Y/D185E/D98H/E277Q/G131W/G231S/I119V/I121R/I166T/I218V/L180W/L300P/L318F/N151K/N90K/P208A/P217A/Q86G/Q94H/R138H/R169H/T345S). The experiment is described as follows: ELISA of small scale MHCI refold (anti-HLA W6/32 capture, anti-B2M detection). The experiment is classed as binding. Details: inferred from enzymatic biotinylation; made in house; host or cells: Escherichia coli. The conditions noted are these: for S/N ELISA value: A*02:03, 1.0 μg/mL MHCI, no peptide control as background; for normalized ELISA OD (signal to background): A*02:03, 1 μg/mL MHCI, normalized to no peptide control.

Where no end group is shown, it is not given here. [ ]: non-standard residue; d: D form. code J = not defined here

Description for HLA-A*02:03: Recombinant HLA alleles and B2M were over-expressed in E. coli, purified from inclusion bodies, and stored under denaturing conditions (6M Guanidine HCL, 25 mM Tris pH 8) in −80° C. as described above. In a 200 μL reaction, the peptide (0.01 mM, per well), oxidized and reduced glutathione (0.5 mM and 4.0 mM, respectively), recombinant HLA alleles (0.03 mg/mL) and B2M (0.01 mg/mL) were all combined within a 96-well plate. Refold screens were performed with five different peptides for each HLA of interest as described above (Table 3). and the MHCI complex was incubated at 4° C. for 3-5 days to allow refolding. […] All data was analyzed relative to the negative control refold, which was performed in the absence of peptide (labeled NP). HLA-A*02:01 refolded with the CMV pp65 viral epitope was used as a positive control.
A 384-well Nunc Maxisorp plate (ThermoFisher Scientific, Waltham, MA) was coated with 25 μL/well of mouse IgG2a anti-HLA ABC clone W6/32 (Novus Biological, Littleton, Co.) at 8 μg/mL in coating buffer (0.05 sodium carbonate pH 9.6). After overnight incubation at 4° C., the plate was washed 3 times with wash buffer (PBS, 0.5% Tween 20). The plate was then blocked with 50 μL/well of Block buffer (PBS, 0.5% BSA, 10 ppm Proclin) and incubated at room temperature (RT) with agitation for 1 hour. After washing the plate 3 times with wash buffer, 25 μL/well of the unpurified refolded MHC complex at 40 μg/mL with and without peptides in assay diluent (PBS, 0.5% BSA+0.05% Tween20+10 ppm Proclin) was added to the plate and incubated for 1 hour at RT. The plate was washed six times and 25 IL of biotinylated mouse IgG1 anti-human B2M (BioLegend, San Diego, CA) at 100 ng/mL in assay diluent was added to each well. After a 1 hour incubation at RT and six washes, 25 μL/well of Streptavidin-Horseradish Peroxidase (GE, Marlborough, MA) was added to the plate and incubated for 30 min at RT. The color reaction was developed with TMB peroxidase substrate (Moss, Pasadena, MD) at RT for 15 min, and the reaction was stopped with 1M phosphoric acid. The absorbance was measured at a wavelength of 405 nm with a reference at 620 nm. […]

For TPANYFHVL [Peptide B3503-04], in the experiment with B*35:03 [1], the ligand presentation result is on record as “Positive”. In addition, in the experiment with B*35:03 [2], the “S/N ELISA value” was “highest OD value” and the “normalized ELISA OD (signal to background)” value is given as “highest OD value”.

The term Kd denotes a measure of binding affinity in units of concentration. As to DVVPMVTQM [Peptide A2601-03], the Kd on A*26:01 is 3000 pM.

For “FAAEAQKJ (FAAEAQKX; not fully specified) [Peptide C0202-03-04]”, in the experiment with C*02:02 [3], the “S/N ELISA value” is recorded as “very low S/N ELISA values” and the “normalized ELISA OD” value was “very low normalized ELISA values”.

For “TJANYFHVL (TXANYFHVL; not fully specified) [Peptide B3503-04-01]”, in the experiment with B*35:03 [2], the “S/N ELISA value” is “very low S/N ELISA values” and the “normalized ELISA OD (signal to background)” value is given as “very low normalized ELISA values”.

Regarding “FJAEAQKL (FXAEAQKL; not fully specified) [Peptide C0202-03-01]”, in the experiment with C*02:02 [3], the “S/N ELISA value” was “very low S/N ELISA values” and the “normalized ELISA OD” value is listed as “very low normalized ELISA values”.

Take DAVPFPISL [Peptide C0202-01]: the ligand presentation entry with C*02:02 [4] is given as “Positive”.

With DTITNVTTM [Peptide A2601-05], the Kd at A*26:01 is 4000 pM.

FMYEGDTPL [Peptide C1402-04]: the Kd at C*14:02 was 100 pM.

Regarding TYLQSLASL [Peptide C1402-02], the Kd on C*14:02 was 100 pM.

Take KIRDLLPVM [Peptide C0202-04]: the ligand presentation result with C*02:02 [4] was “Positive”.

With APEEHPVLL [Peptide B3503-03], the ligand presentation entry in the experiment with B*35:03 [1] is reported as “Positive”.

Turning to SYMSTFPLF [Peptide C1402-01], the Kd on C*14:02 is 100 pM.

Take YYRYPTGESY [Peptide C1402-03]: the Kd at C*14:02 is 100 pM.

In the case of FMYJDFHFI [Peptide A0203-02-02], on HLA-A*02:03, the “S/N ELISA value” is listed as “highest S/N value” and the “normalized ELISA OD (signal to background)” value is “highest normalized ELISA OD value”.

As to FJYSDFHFI [Peptide A0203-02-01], at HLA-A*02:03, the “S/N ELISA value” was “very low S/N ELISA values” and the “normalized ELISA OD (signal to background)” value is on record as “very low normalized ELISA values”.

As to YPYPYPHTAAFSKLIYL [Peptide B3503-05], the ligand presentation entry with B*35:03 [1] is reported as “Positive”.

As to IPAEGRVAL [Peptide B3503-02], in the experiment with B*35:03 [1], the ligand presentation result is reported as “Positive”.

Turning to FAAEAQKL [Peptide C0202-02], in the experiment with C*02:02 [3], the “S/N ELISA value” is roughly 8 and the “normalized ELISA OD” value is roughly 8. In addition, the ligand presentation result with C*02:02 [4] is “Positive”.

In the case of “FAAEAJKL (FAAEA[code J]KL; not fully specified; reading uncertain) [Peptide C0202-03-03]”, in the experiment with C*02:02 [3], the “S/N ELISA value” was “highest S/N value” and the “normalized ELISA OD” value is recorded as “highest normalized ELISA OD value”. Further, in the experiment with C*02:02 [3] (listed as C0202-02-03), the “S/N ELISA value” was determined as 8 and the “normalized ELISA OD” value is recorded as 8.

With SYMSTFPLF [Peptide C0202-05], the ligand presentation entry on C*02:02 [4] is reported as “Positive”.

Consider “FAAJAQKL (FAAXAQKL; not fully specified) [Peptide C0202-03-02]”, for which, in the experiment with C*02:02 [3], the “S/N ELISA value” is recorded as 6 and the “normalized ELISA OD” value was 6.

For IAKSGTSEF (FAAEAQKL) [Peptide C0202-03], in the experiment with C*02:02 [3], the “S/N ELISA value” was “highest S/N value” and the “normalized ELISA OD” value is “highest normalized OD value”. Also, the ligand presentation result with C*02:02 [4] was “Positive”.

Consider “TPAJYFHVL (TPA[code J]YFHVL; not fully specified; reading uncertain) [Peptide B3503-04-02]”, for which, in the experiment with B*35:03 [2], the “S/N ELISA value” is reported as “highest S/N value” and the “normalized ELISA OD (signal to background)” value is reported as “highest normalized ELISA OD value”.
